The supplement of paper PMC9170038

Test system: MS2 coat protein
Assay: apparent KD of MS2 coat protein; designed switch direction (-1 OFF switch, 1 ON switch): -1; higher = weaker reporter binding
Procedure, shortened: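 Stalled E. coli RNA polymerase transcribed designed RNA switches on Illumina chips, which were then titrated with SNAP-549-labelled MS2 coat protein, doubling from 0.7 or 1.5 nM to 3 µM. Steps lasted from 0.8–1.5 h at the lowest concentration to 10–20 min at the highest. The apparent KD is each design's median over clusters of curve-fitted normalised fluorescence.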

[1] = input ligand: microRNA oligo, concentration not stated
[2] = Eterna round: R95, input ligand: microRNA oligo, concentration not stated
[3] = Eterna round: R95, input ligand: FMN 200 uM
[4] = Eterna round: R95, input ligand: none

## GGUACUCAAAGAGUACCAAUACGAACAUGAGGAUCACCCAUGUAGGAUAUGCUACUCAAAGAGUAGCAGAAGGAUAUGAACCUC [Far Half Aptamer v10] (Eterna round: R96, puzzle: Exclusion NG 3)
Input ligand: FMN 200 uM
  apparent KD of MS2 coat protein: 407 nM
[1]
  apparent KD of MS2 coat protein: 204 nM
Input ligand: none
  apparent KD of MS2 coat protein: 227 nM

## AUAAAAGUAGGAUAUUGACUGAUCGACAUGAGGAUCACCCAUGUGGUGCUGUGCGGUAUUCAAGAAGGGCUAAAAU [Ceisusma] (puzzle: Exclusion 5)
[2]
  apparent KD of MS2 coat protein: 20.4 nM

## CUACUGAAGCUUUGCUUUAGUCGUACAUGAGGAUCACCCAUGUAGGAUAUACAUGAGGAUCACCCAUAGAAGGAUAGAGUGAUC [salish99_ExNG3_r04_602] (Eterna round: R96, puzzle: Exclusion NG 3)
Input ligand: FMN 200 uM
  apparent KD of MS2 coat protein: 36.1 nM
[1]
  apparent KD of MS2 coat protein: 31.2 nM
Input ligand: none
  apparent KD of MS2 coat protein: 38.6 nM

## UUAAAUCAUGUAGGAUAUGCGUGGCGAAGCUAUGCAGAAGGACAUGAGGAUCACCCAUGUUCUAGCGUCUGCGUACAGAUGCAA [JL ENG1 1.10] (Eterna round: R96, puzzle: Exclusion NG 1)
Input ligand: FMN 200 uM
  apparent KD of MS2 coat protein: 93.1 nM
[1]
  apparent KD of MS2 coat protein: 17.5 nM
Input ligand: none
  apparent KD of MS2 coat protein: 17.5 nM

## CAGUACUGAGGAUAUACAUGAGGAUCACCCAUGUGUUCCAGCUAGGAAACUAGCAAAAGUAGAAGGCUGUACUG [salish99_ex3_r3_088] (puzzle: Exclusion 3)
[2]
  apparent KD of MS2 coat protein: 17.9 nM

## CGUGACUGAGGAUAUCUAUAUUAUCACAUGAGGAUCACCCAUGUCCAGCGAAAGCUGGAGGGAGAAGGCAGUCACG [Fiskers Ex 5 - 28] (puzzle: Exclusion 5)
[3]
  apparent KD of MS2 coat protein: 17.1 nM
[2]
  apparent KD of MS2 coat protein: 49.8 nM
[4]
  apparent KD of MS2 coat protein: 32.4 nM

## UUUUCUUUUGUGAGGAUAUACUUCUUUUUUUUUUUGUAGAAGGCACAUGAGGAUCACCCAUGUUUUCUUUUCUG [JR_BME4_Sub027] (puzzle: Brourd's mod of Exclusion 4)
[2]
  apparent KD of MS2 coat protein: 22.1 nM

## ACUUGUUGUCCUUGAUAUUACAUGAGGAUCACCCAUGUUAUUGUGAUUAUGAUGUGUAAGUUUGUUGCUCGUUUUAU [JR_STOV1_Sub066] (Eterna round: R97, puzzle: Sensor, turn-off variant 1)
Input ligand: FMN 200 uM
  apparent KD of MS2 coat protein: 84.7 nM
Input ligand: none
  apparent KD of MS2 coat protein: 84 nM

## GAAAGGUAAGGAUAUGCGACUACGGUGAGAUGGUUGACCUGACAUGAGGAUCACCCAUGUAGAAGGUGCUCAAU [Eternabot (L2) Solution 33] (Eterna round: R97, puzzle: Exclusion 2)
Input ligand: FMN 200 uM
  apparent KD of MS2 coat protein: 67.8 nM
Input ligand: none
  apparent KD of MS2 coat protein: 64.2 nM

## GGAGGAGAGUUAGGAUAUACAAGAAGAAUGUGAGUAGAAGGAACGGAACAUGAGGAUCACCCAUGUCCCAUGUGGAGGAGGAGG [Kawasakiqro] (Eterna round: R96, puzzle: Exclusion NG 1)
Input ligand: FMN 200 uM
  apparent KD of MS2 coat protein: 46.2 nM
[1]
  apparent KD of MS2 coat protein: 25.3 nM
Input ligand: none
  apparent KD of MS2 coat protein: 30.9 nM

## UGUUGUUACGCAGGAUAUGUAUGAGGAUCACCCAUAAAACACACACUCCCAUGAGGAUCACCCAUGUAGAAGGGCGGGUUAACA [pwkr exNG2 2xF5 1xFMN.8] (Eterna round: R96, puzzle: Exclusion NG 2)
Input ligand: FMN 200 uM
  apparent KD of MS2 coat protein: 124 nM
[1]
  apparent KD of MS2 coat protein: 54.9 nM
Input ligand: none
  apparent KD of MS2 coat protein: 80.8 nM

## AGAUCGUCAGGAUAUACAUGAGGAUCACCCAUGUAUAGUCUAAAUUUGACUAUAAGAUGUAGAAGGGACGAUCG [Exclusion 3 (MOD5 of #1 Marzena11)] (Eterna round: R97, puzzle: Exclusion 3)
Input ligand: FMN 200 uM
  apparent KD of MS2 coat protein: 75.8 nM
Input ligand: none
  apparent KD of MS2 coat protein: 21.4 nM

## GAUUAUGCGAGCUUUAGGGACAUGAGGAUCACCCAUGUUCGUCUUAUUAGUCUAGGUGCGCUAACAUACCUAAAUCU [JMF 50] (puzzle: Sensor v3, turn-off variant 1)
[3]
  apparent KD of MS2 coat protein: 20.7 nM
[2]
  apparent KD of MS2 coat protein: 35.4 nM
[4]
  apparent KD of MS2 coat protein: 21.6 nM

## ACAUGUAAUGCAGGAUAUCUGACACAUGAGGAUCACCCAUGUGACCAGAGGAAUUGCUAAGAGUCGGAGAAGGGUAUGUACAUG [Ex NG2 #53] (Eterna round: R96, puzzle: Exclusion NG 2)
Input ligand: FMN 200 uM
  apparent KD of MS2 coat protein: 19.4 nM
[1]
  apparent KD of MS2 coat protein: 12.8 nM
Input ligand: none
  apparent KD of MS2 coat protein: 19.7 nM

## UAAUUAAGUGUGAGGAUAUGCUGGUCCUUGGAUCAGCAGAAGGCACAUGAGGAUCACCCAUGUAAUUUAUAUAU [Mat - Exclusion 4 - JL Mod - D52] (puzzle: Brourd's mod of Exclusion 4)
[2]
  apparent KD of MS2 coat protein: 85.5 nM

## GUCAGCUCGUCAGGAUAUAUAUACAUGAGGAUCACCCAUGUAAGAUCAGGCUUCGGCCAAUGUAUAUAGAAGGGACGAGCUGAU [ENG2/11-B2] (Eterna round: R96, puzzle: Exclusion NG 2)
Input ligand: FMN 200 uM
  apparent KD of MS2 coat protein: 721 nM
[1]
  apparent KD of MS2 coat protein: 458 nM
Input ligand: none
  apparent KD of MS2 coat protein: 810 nM

## GAUUAAUGCAAGGAUAUGCUAUUAUUUUAUUUUGCAGAAGGUGCAACAUGAGGAUCACCCAUGUUGGAGGGUAU [JR_E6_Sub026] (puzzle: Exclusion 6)
[2]
  apparent KD of MS2 coat protein: 17.4 nM

## ACAUGAGGGAAGGGAGGAGGGACAUGAGGAUCACCCAUGUCUCAGGAUAUAGAAGAAGAAAGAAACUAGAAGGGAGAGGAGGGU [Kawasakiqro] (Eterna round: R96, puzzle: Exclusion NG 3)
Input ligand: FMN 200 uM
  apparent KD of MS2 coat protein: 29.7 nM
[1]
  apparent KD of MS2 coat protein: 16.6 nM
Input ligand: none
  apparent KD of MS2 coat protein: 25 nM

## GGUAGAGAGCAGGAUAUCUUGGGUAAGUAUUGUAGAGAAGGGCUCACAUGAGGAUCACCCAUGUGGUCCAAGAU [JL Dibiri mod 06] (puzzle: Exclusion 6)
[2]
  apparent KD of MS2 coat protein: 12.8 nM

## CUGCUCCGUGUAGGAUAUGCAUACCACCACUAUGCAGAAGGACAUGAGGAUCACCCAUGUAUGUUAUUAUCACGUGAAGCGUCC [Design 19] (Eterna round: R96, puzzle: Exclusion NG 1)
Input ligand: FMN 200 uM
  apparent KD of MS2 coat protein: 27.8 nM
[1]
  apparent KD of MS2 coat protein: 18.1 nM
Input ligand: none
  apparent KD of MS2 coat protein: 23.7 nM

## GAUCGACAUGAGGAUCACCCAUGUCAGGAUAUCUACAUUGAAGCUGCGGCUUCAAUGUAGAGAAGGGAUAUAAU [E1/16-B1] (Eterna round: R97, puzzle: Exclusion 1)
Input ligand: FMN 200 uM
  apparent KD of MS2 coat protein: 36.9 nM
Input ligand: none
  apparent KD of MS2 coat protein: 27.2 nM

## AAUAACAUGUUGAUCAAAUACAUGAGGAUCACCCAUGUAUGCUUUUUGCUCGAUAAGAUCAACUAAUAAUAAUAAUA [StovNew/1-A] (Eterna round: R97, puzzle: Sensor, turn-off variant 1)
Input ligand: FMN 200 uM
  apparent KD of MS2 coat protein: 14 nM
Input ligand: none
  apparent KD of MS2 coat protein: 15.6 nM

## UUCCUCAUAACAUGAGGAUCACCCAUGUAUUAAUAGAUAACUGAGGAUAUACUAAUAAUGUUUAUGUAGAAGGCAGAUACAGAU [JR_ExcNG3_Sub014] (Eterna round: R96, puzzle: Exclusion NG 3)
[1]
  apparent KD of MS2 coat protein: 40 nM

## GCUAAACAUGUAGGAUAUGCGUGGCGAAGCUAUGCAGAAGGACAUGAGGAUCACCCAUGUUUUAGCGUCUGCGUACAGAUGCGU [JL ENG1 1.43] (Eterna round: R96, puzzle: Exclusion NG 1)
Input ligand: FMN 200 uM
  apparent KD of MS2 coat protein: 318 nM
[1]
  apparent KD of MS2 coat protein: 28 nM
Input ligand: none
  apparent KD of MS2 coat protein: 31.6 nM

## GGGCAGUCAGGAUAUACAUGAGGAUCACCCAUGUUGAGAUGUGAAAGGGCGGGAGUAGGUAGAAGGGACGAGAG [JR_Exclu3_Sub041] (puzzle: Exclusion 3)
[3]
  apparent KD of MS2 coat protein: 27.4 nM
[2]
  apparent KD of MS2 coat protein: 22.8 nM
[4]
  apparent KD of MS2 coat protein: 29.9 nM

## CUGAGCAGACGGAGAUCCAACAUGAGGAUCACCCAUGUCUCAAAAGCUUUCUGCUCGUCUUAUCCUCCUCUGUUCUC [Engeonrati] (puzzle: Sensor v3, turn-off variant 1)
[3]
  apparent KD of MS2 coat protein: 129 nM
[2]
  apparent KD of MS2 coat protein: 205 nM
[4]
  apparent KD of MS2 coat protein: 151 nM

## AGGCAAUCAGGAUAUACAUGAGGAUCACCCAUGUGUACAAAGCACAUCCGAUCUAGAUGUAGAAGGGAUAUGCA [Usmabesobi] (puzzle: Exclusion 3)
[2]
  apparent KD of MS2 coat protein: 18 nM

## GUCAGCUCGUCAGGAUAUACAUGAGGAUCACCCAUGUGAUCAAUAGCAGCUUCGGCUGCAUACAUGUAGAAGGGACGAGCUGAC [ENG2/6-B1] (Eterna round: R96, puzzle: Exclusion NG 2)
Input ligand: FMN 200 uM
  apparent KD of MS2 coat protein: 55.6 nM
[1]
  apparent KD of MS2 coat protein: 18.4 nM
Input ligand: none
  apparent KD of MS2 coat protein: 35.5 nM

## AAGAAGAAGUAAGGAUAUGAAGAUCUGGUGGUGACAUGAGGAUCACCCAUGUGAAAACGAUGAGAUCAGAAGGUACAAGAAGAA [AK ExNG2-3.4] (Eterna round: R96, puzzle: Exclusion NG 2)
Input ligand: FMN 200 uM
  apparent KD of MS2 coat protein: 86.4 nM
[1]
  apparent KD of MS2 coat protein: 65.3 nM
Input ligand: none
  apparent KD of MS2 coat protein: 77.8 nM

## AUGAGACAUGAGGAUCACCCAUGUGAGGAUAUGUAUGGAUGGAGGAAAGAAUGAGAGAACAGAAGGCACGGAGG [JR_Exclu1_Sub065] (puzzle: Exclusion 1)
[3]
  apparent KD of MS2 coat protein: 70.7 nM
[2]
  apparent KD of MS2 coat protein: 72.7 nM
[4]
  apparent KD of MS2 coat protein: 112 nM

## CCUAGCCUAAAAUCACGCAAGCUUUUUGCUUGUCUUAAGACAUGAGGAUCACCCAUGUCCGGGCUGAACUUAUGGAA [Veorxe] (puzzle: Sensor v3, turn-off variant 2)
[3]
  apparent KD of MS2 coat protein: 17.8 nM
[2]
  apparent KD of MS2 coat protein: 23.2 nM
[4]
  apparent KD of MS2 coat protein: 16.6 nM

## AAUAACAAGUUGAUCCUACACAUGAGGAUCACCCAUGUGCUCGUCUUGUAAAGUACUAUCACGAAAGUGAUAGUACA (Eterna round: R97, puzzle: Sensor, turn-off variant 1)
Input ligand: FMN 200 uM
  apparent KD of MS2 coat protein: 50.2 nM
Input ligand: none
  apparent KD of MS2 coat protein: 66 nM

## GUGUAAGGAGGAUAUACAUGAGGAUCACCCAUGUGAAUAAGAUAGAAUAAGAUAAAGUGUAGAAGGCUUAGUGU [Excluse me!!! 25 - Jieux - Exclusion 3] (puzzle: Exclusion 3)
[3]
  apparent KD of MS2 coat protein: 39 nM
[2]
  apparent KD of MS2 coat protein: 38.6 nM
[4]
  apparent KD of MS2 coat protein: 44.7 nM

## UAUGUUGUUGUGAGGAUAUACUUAGUUUGACCGUAGUAGAAGGCACAUGAGGAUCACCCAUGUAGAUGCUUGGU [JR_BME4_Sub006] (puzzle: Brourd's mod of Exclusion 4)
[2]
  apparent KD of MS2 coat protein: 5.53 nM
